Source: doi:10.1101/2023.12.04.569983

Tests used:
HP1α (untagged, wt) = assay: EMSA; details: 20 mM HEPES pH 7.5, 70 mM KCl, 1 mM DTT
HP1α-16aa-mEGFP = assay: EMSA; details: 20 mM HEPES pH 7.5, 70 mM KCl, 1 mM DTT

## 187 bp DNA
HP1α (untagged, wt)
  K half: 880 nM
HP1α-16aa-mEGFP
  K half: 580 nM
